Experiment: label from the status in PepcDB records

Sequence | protein production
MKPLHLKLNNFGPFLKEEIDFSKIDNNELFLISGKTGSGKTMIFDAMTYALFGKASTEQREENDLRSHFADGKQPMSVTFEFQLNHRIYKVHRQGPYIKEGNTTKTNAKFDVFEMVDGKYEIRESKVISGTQFIIELLGVNADQFRQLFILPQGEFKRFLISNSREKQGILRTLFDSEKFEAIREILKEELKKEKAQIENRYQQIDLLWQEIESFDDDKIKGLLELAT | failed
MSDPYERVNGGRLAFKGGDLATRKSIEKKKKKKQKKNKEKLDGVEDGAKTAPDGSPPPAAAAGDEDIYSIDAAKKKKYDDLFPVEAKKFGYIPKANFESREDALDDRVKKKADRYCK | failed
MDNPCPTCGQELEWTGQYHCSACTVDYCKVGFCPECGSELEKLQACGAANYFCNQCNELKSKSKIRFVFQPLNGNSQLEHHHHHH | not failed
SSPVPFGPEGRLEDKLHKPKATQTEVKPSVRFNLRTSKDPEHEGCYLSVGHSQPLEDCSFNMTAKTFFIIHGWTMSGIFENWLHKLVSALHTREKDANVVVVDWLPLAHQLYTDAVNNTRVVGHSIARMLDWLQEKDDFSLGNVHLIGYSLGAHVAGYAGNFVKGTVGRITGLDPAGPMFEGADIHKRLSPDDADFVDVLHTYTRSFGLSIGIQMPVGHIDIYPNGGDFQPGCGLNDVLGSIAYGTITEVVKCEHERAVHLFVDSLVNQDKPSFAFQCTDSNRFKKGICLSCRKNRCNSIGYNAKKMRNKRNSKMYLKTRAGMPFRVYHYQMKIHVFSYKNMGEIEPTFYVTLYGTNADSQTLPLEIVERIEQNATNTFLVYTEEDLGDLLKIQLTWEGASQSWYNLWKEFRSYLSQPRNPGRELNIRRIRVKSGETQRKLTFCTEDPENTSISPGQELWFRKCRDGWRMKNETSPTVELP | not failed
MRNDTMLNDTPFQDDDSRWQAVVTRNKAADSCFIYAVKTTSIYCAPSCASRQPRRENVVFFATADEAQAAGFRPCKRCRQGMLSRQEQQAQQIARACRMIEQSDRPPTLAVLAQAVGMSAFHFHRVFKTTTGLTPKQYASAYRHRQLREHLADNGEVTAAIVAAGYDASGRFYAEAGTHLGMTPTAFQNRGKGMTIHFAIGRCSLGDVLVAESEKGICAILLGDDPEPLLNTLQEMFAHAHLVGGDAAFEQRMSQVVGFVDDPSIGLTLPLDIRGTAFQQRIWQALRAIPVGETLSYREVAERIGSPAAVRAVAGACAANRLAVAIPCHRVVRHDGALSGYRWGVERKRALLEKEQVEKKQIVHQPEESPP | failed
MTDNSQFHAASALVQAAHTVSVVGHLRPDADAIGSVAATVAALQQLGKDAVGAIGQLDSMPENLYTIPGASNIKFGDSLPESDLIIVVDCGSIERTGAFESIIVNNPDKVLVVDHHATNPGFGAVNLIDVEAESTTTILYDWFDAMSVQITPDIAHGLYAGLLTDTGCFRWGRPVMHDMAKELMEFGLDIRAISSALLDQTSVDDLRLVGQIVSRIELREAGPYTLAVLVADFDTINGRSRAVVEGLIEMVRAVEGADFGAVFKEYERGVYTVSLRSSNLSVASLAVHLGGGGHIPAAGYTARGTEIEALDTLIEATVTLGESLRSSAHVDVLEHHHHHH | not failed
MPGTKQVNVGSLKVGQYVMIDGVPCEIVDISVSKPGKHGGAKARVVGIGIFEKVKKEFVAPTSSKVEVPIIDRRKGQVLAIMGDMVQIMDLQTYETLELPIPEGIEGLEPGGEVEYIEAVGQYKITRVIGGK | not failed
MHAKFLDTLDWGILIAYFLILIAIGIWASSKRKKGSSLFLAEHSLRWHHIGFSMWGTNVGPSMLIASASAGFTTGIVSGNYAWYAFVFICLLAFVFAPRYLGSRVSTLPEFMGKRFGQSTRNILAWYTIVTILISWLALTLFAGGVLIRQVFDIPMWQSALILLIISAFFTMLGGLKAVAYTNVYQMILLILVSAALAIVGIYKVGGISALTDAVPADFWNLFRPNDDTAFPWLPIILGYPVMGVWFWCTDQSMVQPVLAAKSLKEGQLGTNFTGWLKILDVPLYILPGIICLALFPQLENPDEAYMTMVTHLFPVGMVGLVLAVLTAALVSTIGSALNALSTVFTMDIYVKKIRPQAKQKEIIRVGQVVTVAGALISVIITIAIDSIHGLNLFNVFQSVLGFIAPPMAAVFLFGVFWKRTTTLAANAALTVGTVFSIGVGVLYLWVFPADQYSAWPHFMLLSFYLFVIIGIGMVVVGLLDKTPQTAILNMEKIEEKPARIVLILWGLLIVTMIGLYIFFNGH | failed
MEESATVEVVVGRVGRAHGLRGDVVVEVRTDEPDARFGVGATVQIEGSRRDLTVVRSRWAKGCLIVAFDEVKDRQGAEELRGSVLVVDVEPNDDPDDPDEFWDRRLRGLTVVDESGKSRGAVKDVLHMPAQDVLVIDVSGEEHLVPFVHQLVPTVDVASGRIVVSGIPGLLDSNAEEAR | failed
MEKAGMHRTLNYRLRFDIPLVGKDCEYALVQDLPASVYISTDELDDLQRLKRLNAIYPKFVNIEVATERAQPFSVLLRGTPKITESLALPVHFRYHAPSDKRLAATVAIPLPELYLNCPMADSALIENELVARPDKLYCLNAPESRFDENHIKDGQPTTMANLERCNWRRVHVDCQLKMPLRAEIPVGHASAYGPVLCGTILLGWSLALWTIIHSMANTRRINQRLNEQRLLQQKVK | failed
MKKESLFRYAREHFNSEPEYLWSNLPDYAVLRHDHGDKWFGIVMSVRGSTLGLKTDDKVDILDVKVRPEYIGSLRQKEGVLPAYHMNKEHWISVILSGPLSTKEIHELLADSHELTSGLEHHHHHH | not failed
MIRFQPITTSDVQHYKFMEELLVESFPPEEYRELEHLREYTDRIGNFHNNIIFDDDLPIGFITYWDFDEFYYVEHFATNPALRNGGYGKRTLEHLCEFLKRPIVLEVERPVEEMAKRRINFYQRHGFTLWEKDYYQPPYKEGDDFLPMYLMVHG | failed
EVSYAKERVRLITASGRTHDLTVELAVDPSQREQGLMYRRQMAPDHGMLFDFGETRPVMMWMKNTYLPLDMLFIASDGTIRTIHENAVPHSEAIIDSREPVAYVLELNAGTVKRLGVSPGDRLEGAGLPATKRAN | not failed
MSGRGKVKSEPMKVVFINTQYVETDARSFKTVVQELTGKNAIVAAGPFDSPSAFDGRCYDGGSKIGEDTRQLHGGGGGGGRMGTTTEFDRLFKEMPHMEELYKLWSEY | failed
MRELLKVTLIVMLVLINAFFVACEFAMVKLRSSRIDTMITEGNNNAKRCKIIKDNLNSYLSACQLGITLCSLALGWMGESTVKELILPIVSVFNLSESIIYTISISISFLIITMMEVVIGELVPKALALYNTEKIMLSTSFLLVGFYKLTYPIIYFFNLSTDLFLKPFGYSQADEVDEPHTGDEIRLLVEESYKSGLIDESEQRLVDNIFEFEEKKIREIMVPRTDMVCIYESDSEEKILAILKEEGVTRYPVCRKNKDDILGFVHIRDLYNQKINENKIELEEILRDIIYISENLTIDKALERIRKEKLQLAIVVDEYGGTSGVVTIEDILEEIVGEIQDEFDKEETHIKKIGAGSYLVDGTESINYINKYFGLDIEHDGFDSIGGWISYMLGSNIKVNQSVTFENYNFTILELDKLRVVKLIIKSVI | failed
MKRFQKQILLRRILQMDYKQIAKEVIEALGGRENVNSVAHCATRLRVMVKDENKINKEKAENIEKVQGAFFNSGQYQMIFGTGTVNKIYDEVVAQGLPTASKDEQKAEAAKQGNWFQRAIRSFGDVFVPLLPAIVATGLFMGIRGAINNDTVLALFGTTSKAFAATDFYTYTVVLTDTAFAFFPALICWSAFNVFGGSPLLGLVLGLMMVNNALPNAWDVVSGAAKPIYFFDFIPVVGYQNSVLPAFFVGLIGAKFEQWVRKWVPDVLDLLLRPLVVFAVMSALALFIIGPVFHTVESYVLAGTEWILALPFGLAGLVLGGIHQIIVVTGVHHVFNLLEANLISNTGKDPLNAIITAAMTAQAGATLAVGVKTKDSKLKALAFPASLSAVLGITEPAIFGVNLRFGKPFIMGLIAGAAGGWLASILNLAGTGFGVTIVPGTLLYLNGQVLKYVIMVLVTLALGFALTWIFGYKEEEVEAQTEVVAEDIASAGSAPVALQAETIAAPLKGEVVALENVNDPVFSSGAMGKGAAIKPSGNRVVAPFDGEVQIAFPTGHAYGLKSDKGAEVLIHIGIDTVSLDGKGFDAKVQANQRVKKGDVLATFDSSVITEAGLDDTTMVIVTNTADYEDVSLVATGSVAEGGDFIAVK | failed
QAELMTLTIVKGAQGFGFTIADSPTGQRVKQILDIQGCPGLCEGDLIVEINQQNVQNLSHTEVVDILKDCPIGSETSLIIHRG | not failed
MEMINVFVYGTLRRGGGNHQLIAEYVQSVHEATVKGMLFHLPYGYPAMVDGRGTVRGEILELSNPETALTILDELEGYHGPGQSNEYERITVTAVTADGNKYICYTYVYPEEQREWLEQNAQPIFGGDWMAFLHSKDEVMYFAYGSCMSERDFRRTVPHFEVMGRAVLDDYRLAFTRYSSGRQGGVADIVPSPGDRVEGVLYKISSRYVKDLDWREGVPAGVYRREYIDVQHNGQLVSALTYVVVEKQLDEIAPSESYASIILDEGTSLLSPQYIEQVRRHIETLQKKGR | failed
MTIRAGSLDRRTLLRGAIATAAMGSFAVACSSPSSEDKESDSGPKGEKSANNPFGAAANSTVEAAIFDGGYGTDYVDYANQVLGSQVKGLKVQVKPVVDIAPQLQPRFVGGNPPDLIDNSGEDQIGFLGILDQLEELDDLFEASTYEGKKIADIVYPGVKDPGTFKDKFVALNYVMTVYGVWYSKTLFEENGWTPPKTWDEALDLGQEAKKKGKYLFVHGKEAATYYRTLLIDSAIKEGGDEVRLALENLEKGCWSHPAVQGVIKVMETMVKQKMFVPGGSGTQFQKAQAIWSNDQKALLYPSGGWIENEMKKATKADFQMTGIPSMTLTDKPALPYEALRAAAGEPFIVPKQGKNPAGGKEVLRAMLSEKAAANFSKTKLAPTIVKGTVPADGYGSTALVSQTKMLEAAGTNIFNYMFVETYGLNTDQLVPWNSFLAGDLDGKGLTSALQKISDKVREDDSVDKVKVS | failed
MSDRSSLFDVRSSTSVTLDQVVRRDTVEIPDEAALAMPVQPLSFWQGGARRATALTQDMNLRRWMLGLMTIAMGVAGWKASFDTIALGGVTRLEAVVLTLLAPLFLALSLWFCTALIGFVVLMGRPKDPLGIDSEAPMPKLHTRTAILMPVYNEDAAAVFARLRAMDASIAETGSARNFDIFVISDTRDAQVALAEQACFARFRREANCNVYYRIRKENTGRKAGNVADWVSRWGSAYEHMLVLDADSLMTGEAMVRLADAMERHPGAGLIQTMPMIINGQTIFARTLQFATRLYGRVAWTGLAWWSGSESSFWGHNAIVRTRAFAETCGLPHLPGPKPFGGEVMSHDALESALLRRGGWSVHLAPYLDGSYEESPSNLLDFATRDRRWCRGNIQHVPLIALPGLHWMSRMHLVIGVLSYALSPLWFFCLSAGLISRALMPELKKAAFTMADLKAAAHALIDWSEIQATAWAMIITFVLLFGPKILGAILVLARKGEVKGFGGKRRMAAGLGVEMLLSALVAPMLMFTQTRAIVEILAGKVGGWAAQRRDADKVDFKEAWAAMGWISLSGLILAASFWFTPDLLTATAPILAGLVLAVPLTMLGAHKVAGLKLKANGLFMTPEERRPPAIVRAAVGAACEPPIRWFARNGRPIGPTTKIRDAA | failed
MTGTRIAIGICTFRRPGIAATLASLGALRWPEGMSGLVIVADNDETPSARETVHAAAKGLPLPVCYLHAPARNISVARNAILEAAGARGLERLAFLDDDEMVEPGWIEALTEALARTGAEAVLGPVRAEHGAEAPAWMRESAIHDTRPTFLPDGSIKSGYSCNVLMDLTAPALEGLRFDPERGRSGGEDTAFFEAMLRRGGRLGFAPDALVRETVPADRARLGWLLRRRFRMGQTHASLIAGPGRAQRAKQALVALSKVAACSGMALAAVHDPLRRNNALLRGALHVGTLSALFGARPITIYGGTGPAPSTFDSKTDSYLVSRSRT | failed

— a protein production outcome set (Wang et al. 2014)
